Measurements from publication PMC9036094, “Antigen-derived peptides engage the ER stress sensor IRE1α to curb dendritic cell cross-presentation” (The Journal of Cell Biology, 2022).
Entries after “also recorded” stand apart in the source; their conditions may differ.

Experiments:
IRE1α LD-Fc [1] = experiment: Co-immunoprecipitation of ovalbumin with IRE1α LD-Fc; assay type: binding, human; conditions: LD-Fc 10 μg/ml, 2 h; ovalbumin 1-300 μg/ml; in words
Procedure: (§1) For experiments testing ovalbumin binding, a human LD-Fc was used at indicated concentrations. LD-Fc is comprised of amino acids M1-D443 of IRE1α fused C-terminally to a linker ([…]) followed by the human IgG1 hinge and Fc portion. Ovalbumin (Sigma-Aldrich) was dissolved in sterile PBS and used in native state or denatured as indicated by incubation at 95°C buffer for 10 min.
For co-immunoprecipitation experiments, IRE1α LD-Fc (10 μg/ml) and ovalbumin (indicated concentrations) were co-incubated in binding buffer (as described above) for 2 h and then immunoprecipitated with anti-IRE1α LD antibody (made in-house at Genentech), conjugated to sepharose beads, overnight at 4°C. Beads were subsequently washed four times with lysis buffer and boiled in SDS sample buffer for 10 min. Samples were then analyzed by SDS-PAGE followed by immunoblot.

[2] = system: IRE1α (XBP1s, pIRE1α) in BMDCs; experiment: IRE1α activation in BMDCs (immunoblot); assay type: cell-based, mouse
Procedure: Figure 1. Antigen pulsing of BMDCs activates IRE1α. (A) BMDCs were pulsed with ovalbumin (starting at 62.5 μg/ml and sequentially doubled) and analyzed by immunoblot (IB) for the indicated markers. (B) BMDCs were pulsed with ovalbumin (starting at 500 μg/ml and sequentially halved) or […] (1 μM), or stimulated with tunicamycin (1 μg/ml) or poly-I:C (25 μg/ml) for 4 h, and analyzed by IB. (C) BMDCs were pulsed with ovalbumin (500 μg/ml) for indicated time points and analyzed by IB. (D) BMDCs were pulsed for 4 h with ovalbumin or lysates derived from the indicated cell lines (500 μg/ml protein) and analyzed by IB. […] (F) Upon removal from bone marrow, total bone marrow cells were transfected with non-targeting control (NTC) or TAP1-targeting gRNAs, along with CRISPR/Cas9 delivery constructs. Cells were then subjected to standard BMDC-differentiation protocol, pulsed with ovalbumin (500 μg/ml) for 4 h, and analyzed by IB. All IB images are representative of at least two similar experiments, and molecular weights represent kD. Source data are available for this figure: SourceData F1.
For purification and differentiation of BMDCs, the femur and tibia bones of C57BL/6 mice were flushed with sterile PBS, and bone marrow cells were then cultured in RPMI1640 media as described above and further supplemented with […] β2-mercaptoethanol (Sigma-Aldrich), 20 ng/ml GM-CSF (BioLegend), and 10 ng/ml IL-4 (BioLegend) for 9 d, with media being replenished every 3 d. Where indicated, Flt3L-BMDCs were similarly generated using media supplemented with 200 ng/ml recombinant mouse Flt3L (PeproTech; [Brasel et al., 2000]). After 9 d of culture, BMDCs were routinely verified to be >90% CD11c^+ MHC-II^high by flow cytometry analysis.
Thapsigargin (Sigma-Aldrich) was used at 100 nM, tunicamycin (Sigma-Aldrich) was used at 5 μg/ml, MG132 (Sigma-Aldrich) was used at 5 μM, Amiloride (Sigma-Aldrich) was used at 10 μM, actinomycin D (Sigma-Aldrich) was used at 4 μg/ml, LPS (Sigma-Aldrich) was used at 10 μg/ml, and poly-I:C (Sigma-Aldrich) was used at 25 μg/ml. Ovalbumin (Sigma-Aldrich), EF-OVA (EndoFit; InvivoGen), […] peptide (Sigma-Aldrich), and human CD4-Fc fusion protein (generated in-house at Genentech) were dissolved in PBS prior to pulsing and used at indicated concentrations.
Cells were lysed in PBS solution supplemented with 1X radioimmunoprecipitation assay buffer (Millipore) and 2X Halt protease-phosphatase inhibitor cocktail (Thermo Fisher Scientific). Upon clearance, samples were analyzed by SDS-PAGE, electrotransferred to nitrocellulose membranes (Invitrogen), and blocked by 5% powdered milk in PBSt (PBS supplemented with 0.1% tween) solution. Development was conducted with ECL reagent (Thermo Fisher Scientific) and imaging was performed with the ChemiDoc ZRS+ imager (Bio-Rad). Antibodies used for Western blot analysis include IRE1α (3294, rabbit; Cell Signaling Technology), β-actin (5125, rabbit; Cell Signaling), GAPDH (97166, mouse; Cell Signaling), ATF6 (66563-1-Ig, mouse; ProteinTech), TAP1 (12341, rabbit; Cell Signaling), CHOP (2895, mouse; Cell Signaling), ATF4 (11815, rabbit; Cell Signaling), ovalbumin (P1-196, rabbit; Thermo Fisher Scientific), human Fc (ab977225, rabbit; Abcam), Myc tag (2272, rabbit; Cell Signaling), and biotin (5597, rabbit; Cell Signaling). IRE1α lumenal domain (mouse), XBP1s (rabbit), and pIRE1α (rabbit) antibodies were generated at Genentech. Secondary antibodies used were for mouse (715-035-150; The Jackson Laboratory) and rabbit (711-035-152; The Jackson Laboratory).

IRE1α LD-Fc [3] = experiment: Plate-based ovalbumin binding to IRE1α LD-Fc; parameters: species or system human; conditions: LD-Fc 10 μg/ml, 2 h, room temperature; in words
Procedure: as §1
For plate-based binding experiments, native or heat-denatured ovalbumin at indicated concentrations was bound to a flat-bottom 96-well plate (Corning Inc.) with coating buffer (BioLegend), washed with PBSt, blocked with 1% BSA in PBS, and subsequently incubated with IRE1α LD-Fc (10 μg/ml) in binding buffer composed of PBS with 20 mM Hepes, 100 mM KOAc, and 0.2% tween-20 for 2 h at room temperature. Plates were washed again with PBSt and incubated with an anti-human Fc HRP-conjugated antibody (ab977225; Abcam). Development was performed with 3,3′,5,5′-Tetramethylbenzidine solution and terminated with Stop solution (BioLegend). Readings were taken with a SpectraMax M2 spectrometer (Molecular Devices).

B1: ovalbumin: classical protein antigen ovalbumin (Sigma-Aldrich) (protein)
chain: MGSIGAASMEFCFDVFKELKVHHANENIFYCPIAIMSALAMVYLGAKDSTRTQINKVVRFDKLPGFGDSIEAQCGTSVNVHSSLRDILNQITKPNDVYSFSLASRLYAEERYPILPEYLQCVKELYRGGLEPINFQTAADQARELINSWVESQTNGIIRNVLQPSSVDSQTAMVLVNAIVFKGLWEKAFKDEDTQAMPFRVTEQESKPVQMMYQIGLFRVASMASEKMKILELPFASGTMSMLVLLPDEVSGLEQLESIINFEKLTEWTSSNVMEERKIKVYLPRMKMEEKYNLTSVLMAMGITDVFSSSANLSGISSAESLKISQAVHAAHAEINEAGREVVGSAEAGVDAASVSEEFRADHPFLFCIKHIATNAVLFFGRCVSP
co-immunoprecipitation with IRE1α LD-Fc (IRE1α LD-Fc [1]): did not show appreciable binding | time of peak IRE1α phosphorylation ([2]; 4-h pulse, ovalbumin 500 μg/ml): 2 h | time of peak XBP1s protein ([2]; 4-h pulse, ovalbumin 500 μg/ml): 2 to 4 h | IRE1α activation ([2]; GM-CSF + IL-4 BMDCs, immunoblot for XBP1s/pIRE1α, in words): concentration- and time-dependent activation of IRE1α; also recorded: much weaker IRE1α activation than did the potent pharmacological ER-stressor tunicamycin; also recorded: only IRE1α exhibited substantial activation | binding to immobilized IRE1α LD-Fc (IRE1α LD-Fc [3]): little binding over background
